Columns and labels:
Test in all cases: BLI
[1] = molecular target: WRAIR-5021 (rhesus macaque)
[2] = molecular target: WRAIR-5004 (rhesus macaque)
[3] = molecular target: WRAIR-5020 (rhesus macaque)
[4] = molecular target: WRAIR-5011 (rhesus macaque)
Sequence of WRAIR-5011 (rhesus macaque) (VH, as listed by the source, chain 1 of 2): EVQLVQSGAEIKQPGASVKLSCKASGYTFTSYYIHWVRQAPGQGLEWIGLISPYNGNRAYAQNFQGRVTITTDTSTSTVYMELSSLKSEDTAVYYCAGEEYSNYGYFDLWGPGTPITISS
Sequence of WRAIR-5011 (rhesus macaque) (VL, as listed by the source, chain 2 of 2): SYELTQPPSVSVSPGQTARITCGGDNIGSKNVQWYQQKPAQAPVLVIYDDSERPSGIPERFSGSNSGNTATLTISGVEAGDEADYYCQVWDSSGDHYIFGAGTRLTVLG

Sequence of WRAIR-5004 (rhesus macaque) (VH, as listed by the source, chain 1 of 2): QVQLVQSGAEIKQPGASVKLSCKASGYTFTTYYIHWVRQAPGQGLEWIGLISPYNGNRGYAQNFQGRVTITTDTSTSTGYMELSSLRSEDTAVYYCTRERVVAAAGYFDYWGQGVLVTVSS
Sequence of WRAIR-5004 (rhesus macaque) (VL, as listed by the source, chain 2 of 2): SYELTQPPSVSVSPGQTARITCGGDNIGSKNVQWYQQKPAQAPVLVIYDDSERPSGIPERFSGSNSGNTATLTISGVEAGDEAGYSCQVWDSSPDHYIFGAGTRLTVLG
Sequence of WRAIR-5020 (rhesus macaque) (VH, as listed by the source, chain 1 of 2): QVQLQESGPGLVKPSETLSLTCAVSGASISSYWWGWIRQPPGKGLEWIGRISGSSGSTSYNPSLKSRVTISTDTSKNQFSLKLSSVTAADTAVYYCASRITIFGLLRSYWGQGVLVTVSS
Sequence of WRAIR-5020 (rhesus macaque) (VL, as listed by the source, chain 2 of 2): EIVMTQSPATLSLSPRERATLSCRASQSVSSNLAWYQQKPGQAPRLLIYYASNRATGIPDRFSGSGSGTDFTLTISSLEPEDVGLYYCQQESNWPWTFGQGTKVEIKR
Sequence of WRAIR-5021 (rhesus macaque) (VH, as listed by the source, chain 1 of 2): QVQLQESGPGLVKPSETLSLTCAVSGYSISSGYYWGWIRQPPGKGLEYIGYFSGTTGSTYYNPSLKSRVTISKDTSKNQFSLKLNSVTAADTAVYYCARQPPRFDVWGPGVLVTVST
Sequence of WRAIR-5021 (rhesus macaque) (VL, as listed by the source, chain 2 of 2): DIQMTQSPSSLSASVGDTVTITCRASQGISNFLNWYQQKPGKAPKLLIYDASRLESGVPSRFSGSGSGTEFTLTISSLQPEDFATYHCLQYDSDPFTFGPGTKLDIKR

Substance: SARS-CoV-2 Delta RBD (from UniProt P0DTC2 331-527) (domain or fragment)
- Kd [1]: 3.62 nM
- Kd [2]: 2.44 nM
- Kd [3]: 108 nM
- Kd [4]: 0.48 nM
